Source: paper PMC5059719, “Tetrameric structure of the restriction DNA glycosylase R.PabI in complex with nonspecific double-stranded DNA” (Scientific Reports, 2016)

Experiments:
[1] = target: T1, R.PabI Y68F (Pyrococcus abyssi, UniProt Q9V2B6 8-226, Y68F); assay: EMSA; dimer shift at low concentration, supershift at high; poly-dT competitor; EMSA: 0.1 uM DNA, 0.1-12.8 uM R.PabI dimer, 10 mM MES pH 6.0, 300 mM NaCl, 50 uM poly-dT (40 nt) competitor, 30 min at 4 C; 12% PAGE in 0.5x TBE at 4 C; conditions: protein: recombinant; chain copies: 2; label: 5'-fluorescein; blunt; self-complementary, 2 copies of S3
T1 sequence: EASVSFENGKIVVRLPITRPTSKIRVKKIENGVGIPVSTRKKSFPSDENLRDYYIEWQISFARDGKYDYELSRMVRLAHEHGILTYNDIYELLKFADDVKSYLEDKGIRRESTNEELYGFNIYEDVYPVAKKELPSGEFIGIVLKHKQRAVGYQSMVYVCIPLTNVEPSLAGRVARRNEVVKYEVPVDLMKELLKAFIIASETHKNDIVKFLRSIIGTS

[2] = target: T1, R.PabI Y68F; assay: EMSA; predominant supershift (tetramer), dimer band very weak; poly-dT competitor; EMSA: 0.1 uM DNA, 0.1-12.8 uM R.PabI dimer, 10 mM MES pH 6.0, 300 mM NaCl, 50 uM poly-dT (40 nt) competitor, 30 min at 4 C; 12% PAGE in 0.5x TBE at 4 C; conditions: protein: recombinant; chain copies: 2; label: 5'-fluorescein; blunt; self-complementary, 2 copies of S1
[3] = target: T2, R.PabI Y68F D71R (Pyrococcus abyssi, UniProt Q9V2B6 8-226, Y68F;D71R); assay: EMSA; dimer shift at 0.2-1.6 uM plus supershift; tetramerization inhibited; poly-dT competitor; EMSA: 0.1 uM DNA, 0.1-12.8 uM R.PabI dimer, 10 mM MES pH 6.0, 300 mM NaCl, 50 uM poly-dT (40 nt) competitor, 30 min at 4 C; 12% PAGE in 0.5x TBE at 4 C; conditions: protein: recombinant; chain copies: 2; label: 5'-fluorescein; blunt; self-complementary, 2 copies of S1
T2 sequence: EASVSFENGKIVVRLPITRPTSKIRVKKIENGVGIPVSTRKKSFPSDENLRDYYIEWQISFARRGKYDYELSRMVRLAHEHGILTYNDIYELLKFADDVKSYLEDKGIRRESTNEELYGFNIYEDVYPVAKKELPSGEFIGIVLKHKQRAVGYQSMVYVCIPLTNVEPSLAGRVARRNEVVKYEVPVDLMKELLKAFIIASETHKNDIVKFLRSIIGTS

[4] = target: T3, R.PabI Y68F R70D D71R (Pyrococcus abyssi, UniProt Q9V2B6 8-226, Y68F;R70D;D71R); assay: EMSA; similar to Y68F; poly-dT competitor; EMSA: 0.1 uM DNA, 0.1-12.8 uM R.PabI dimer, 10 mM MES pH 6.0, 300 mM NaCl, 50 uM poly-dT (40 nt) competitor, 30 min at 4 C; 12% PAGE in 0.5x TBE at 4 C; conditions: protein: recombinant; chain copies: 4; label: 5'-fluorescein; blunt; self-complementary, 2 copies of S1
T3 sequence: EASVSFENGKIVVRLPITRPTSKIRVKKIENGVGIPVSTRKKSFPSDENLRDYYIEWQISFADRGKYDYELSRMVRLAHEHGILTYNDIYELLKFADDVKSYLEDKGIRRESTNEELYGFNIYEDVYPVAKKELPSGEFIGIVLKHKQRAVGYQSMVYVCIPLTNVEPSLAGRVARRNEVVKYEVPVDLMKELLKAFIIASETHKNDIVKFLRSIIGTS

[5] = target: T4, R.PabI Y68F R70D (Pyrococcus abyssi, UniProt Q9V2B6 8-226, Y68F;R70D); assay: EMSA; supershift only, about the same as Y68F; poly-dT competitor; EMSA: 0.1 uM DNA, 0.1-12.8 uM R.PabI dimer, 10 mM MES pH 6.0, 300 mM NaCl, 50 uM poly-dT (40 nt) competitor, 30 min at 4 C; 12% PAGE in 0.5x TBE at 4 C; conditions: protein: recombinant; chain copies: 4; label: 5'-fluorescein; blunt; self-complementary, 2 copies of S1
T4 sequence: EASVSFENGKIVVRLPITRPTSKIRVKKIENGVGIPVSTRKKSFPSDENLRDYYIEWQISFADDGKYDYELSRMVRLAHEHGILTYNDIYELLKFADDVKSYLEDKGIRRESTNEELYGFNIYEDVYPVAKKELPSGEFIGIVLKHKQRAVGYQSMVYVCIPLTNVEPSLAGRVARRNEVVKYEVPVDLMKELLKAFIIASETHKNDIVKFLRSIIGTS

[6] = target: T1, R.PabI Y68F; assay: EMSA; about the same binding as co-crystallization DNA; poly-dT competitor; EMSA: 0.1 uM DNA, 0.1-12.8 uM R.PabI dimer, 10 mM MES pH 6.0, 300 mM NaCl, 50 uM poly-dT (40 nt) competitor, 30 min at 4 C; 12% PAGE in 0.5x TBE at 4 C; conditions: protein: recombinant; chain copies: 2; label: 5'-fluorescein; blunt; self-complementary, 2 copies of S2
[7] = target: T5, R.PabI R32A E63A (Pyrococcus abyssi, UniProt Q9V2B6 8-226, R32A;E63A); assay: X-ray crystallography; 1.9 A; tetramer sandwiches dsDNA; 0.2 M calcium acetate, 0.1 M imidazole pH 8.0, 10% PEG8000; EMSA: 0.1 uM DNA, 0.1-12.8 uM R.PabI dimer, 10 mM MES pH 6.0, 300 mM NaCl, 50 uM poly-dT (40 nt) competitor, 30 min at 4 C; 12% PAGE in 0.5x TBE at 4 C; conditions: protein: recombinant; chain copies: 4; blunt; self-complementary, 2 copies of S1
T5 sequence: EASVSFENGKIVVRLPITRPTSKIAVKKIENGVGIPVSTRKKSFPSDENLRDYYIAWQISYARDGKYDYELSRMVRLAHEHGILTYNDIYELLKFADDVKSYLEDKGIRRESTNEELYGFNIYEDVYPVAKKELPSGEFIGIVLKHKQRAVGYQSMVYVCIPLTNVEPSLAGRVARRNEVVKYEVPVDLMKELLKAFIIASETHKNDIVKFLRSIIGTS

B1: 20 bp specific probe (GTAC) (dsDNA)
DNA 1: GCATAGCTGTACAGCTATGC
DNA 2: GCATAGCTGTACAGCTATGC
[1]
  binding result: binds

B2: 20 bp nonspecific probe (same sequence as co-crystallization) (dsDNA)
DNA 1: GCACTAGTTCGAACTAGTGC
DNA 2: GCACTAGTTCGAACTAGTGC
[2]
  binding result: binds
[3]
  binding result: binds
[4]
  binding result: binds
[5]
  binding result: binds

B3: 20 bp nonspecific probe without GT, TA, AC steps (dsDNA)
DNA 1: GCATCGATTCGAATCGATGC
DNA 2: GCATCGATTCGAATCGATGC
[6]
  binding result: binds

B4: 20 bp nonspecific dsDNA (co-crystallization) (dsDNA)
DNA 1: GCACTAGTTCGAACTAGTGC
DNA 2: GCACTAGTTCGAACTAGTGC
[7]
  binding result: binds
